Assay results: the supplement of paper PMC9170038

Legend:
[1] = system: K4 kissing-loop RNA reporter; test: apparent KD of K4 kissing-loop reporter; higher = weaker reporter binding; conditions: Eterna round: R107;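 also: bound reporter read as fluorescence of individual clusters on recovered sequencing chips by microscopy, with normalized cluster intensities fitted with a binding model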
Description: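 RNA-MaP round R107: designed RNA switches with theophylline, tryptophan, arginine or FMN aptamers are transcribed on-chip within common flanks. They are titrated with a labelled K4 kissing-loop RNA reporter in RNA-MaP buffer (100 mM Tris pH 7.5, 80 mM KCl, 4 mM MgCl2), without ligand or with the indicated ligand. Median apparent KD per design.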

MS2 coat protein = test: apparent KD of MS2 coat protein; designed switch direction (-1 OFF switch, 1 ON switch): -1; higher = weaker reporter binding
Procedure, shortened: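 Apparent KD, taken as the median over clusters for each design, was obtained by curve-fitting normalised cluster fluorescence. Designed RNA switches had been transcribed on Illumina chips by stalled E. coli RNA polymerase and titrated with SNAP-549-labelled MS2 coat protein, doubling from 0.7 or 1.5 nM to 3 µM.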

[2] = input ligand: theophylline 20 uM
[3] = input ligand: tryptophan 2.4 mM
[4] = Eterna round: R95, input ligand: microRNA oligo, concentration not stated
[5] = Eterna round: R95, input ligand: FMN 200 uM
[6] = Eterna round: R95, input ligand: none
[7] = input ligand: microRNA oligo, concentration not stated

Sequence | apparent KD of K4 kissing-loop reporter ([1]; input ligand: FMN 200 uM) [nM] | apparent KD of K4 kissing-loop reporter ([1]; input ligand: arginine 13.2 mM) [nM] | apparent KD of K4 kissing-loop reporter ([1]; input ligand: none) [nM] | apparent KD of K4 kissing-loop reporter [1, 2] [nM] | apparent KD of K4 kissing-loop reporter [1, 3] [nM] | apparent KD of MS2 coat protein (MS2 coat protein; input ligand: FMN 200 uM) [nM] | apparent KD of MS2 coat protein (MS2 coat protein; input ligand: none) [nM] | further results
CGCAGUGAUGUUGCUUUUAUUCUUGGUUAACGAGGACCGGUACGGCCGCCACUCGAUUUCUAUCUAUUCCAGUGUUUUUUUGAGU [JR_ExcTryptoA_Sub004] | 261 | 374 | 304 | 464 | 195 |  |  | 
UCCCUAAAGGGAGAUACCAGUAAAGAAGUGACGGAGUGGAGUGAUGUUCCAUAUUACUGAUACCCUUGGCAGCUCUUUUGAUUAC [theeternabot_sameState_KL_Theo_B_47] | 108 | 155 | 113 | 187 | 93.2 |  |  | 
AACUCUCAGGCAGCCGAGUGAUGUUCGGCCCGAGGACCGGUACGGCCGCCACUCGGGCCUGAGAGAGGUUAUCAAAGAUAGCCAA [#01 K4 Tryptophan A Same State] | 194 | 75.2 | 89.8 | 142 | 131 |  |  | 
UUUUUGGUUUAGAGUGAUGUUCCUUGUAAUCGAGGACCGGUACGGCCGCCACUCGAUUAGAAAAGAAAAGAAAAGAGUGAUGUUU [BDazzled - #2 SS Tryptophan A] | 347 | 229 | 299 | 248 | 243 |  |  | 
UGGAUAUAGUGAUGUUAUAUAGAGAUGGAUACCAGCAGAGAGAAUUGCCCUUGGCAGCCGAAAGAAGUAUCAUUAGAGAAGAAUG [ExTheophyl.Ai] | 208 | 180 | 253 | 214 | 210 |  |  | 
UGAUACCAGACUGAUACCAGCCACAGAGUCAAAGACUCUGAAAGGGAAACCAGUGAUGUUGGCCCUUGGCAGCAGUCUGGUAUCU [TheoBX 23 #SwitchBubble #StaticStem] | 502 | 412 | 493 | 382 | 431 |  |  | 
GCAGUGAUGUUGCGGAUGUACAGUGGCGUGCGAGGACCGGUACGGCCGCCACUCGUACAGAGCCAGCUAAUACAUCGAUAGGUGA [whbob_SS_Tryp_A_m6] | 289 | 177 | 239 | 296 | 322 |  |  | 
AUCGUUGUCUGAGGAUAUCGGUUAUCUGUAGUGAUGUUACAGUAUAUUCAUAUUAUACUUUCUAUUCGAGAAGGCAGACUACGUA [JR_Nu_ExcFMNB_Sub020] | 169 | 80.5 | 82.5 | 74.8 | 82.9 |  |  | 
AAGUGUCAUUAGACACACGCAUCUAUAAACUAGGAUAUGCUGAUAAGCAGAAGGAGUGAUGUUCCUUUCAUGAUGCGAAUUAAAU [#07 K4 FMN A Exclusion] | 224 | 123 | 113 | 135 | 111 |  |  | 
AUUCUGUUUUUGAUGUUUAUUGUAUAAUGGCAGGAUAUCGUAGAAGCGAGAAGGGCUUUUAUGCGUUAUGAGUGAUGUUUGUAGG [eyeefvmullin] | 373 | 260 | 284 | 319 | 256 |  |  | 
UGUAUGUGAUGUGAUACCAGUGAAGAGCCAGUGAUGUUGGUAGAACUGGUAUAUAAAUAACACCCUUGGCAGCACAAUCACGUAC [whbob_Ex_Theo_B_sa99] | 289 | 243 | 286 | 320 | 314 |  |  | 
AGUGACGUCGCGGCCGCCACUGAAAUGACAGUGAUGUUGUCAAAAGAAAGUGAUGUUAAGAAAUGCAGGACCGGGUGAUAGAAAA [semi-accidental] | 223 | 144 | 158 | 143 | 125 |  |  | 
UGCUUUAUCAGAAGGAGCGGGUUGUUCAUAAUAAUAAUCAGUGAUGUUGAUAUAUGAUGAUUCCAGGUAGGUCGCUGAUAUAGCU [KL-XARG-B2] | 283 | 214 | 273 | 256 | 238 |  |  | 
CGGUACUGAGGAUAUACAUGAGGAUCACCCAUGUGUUCUAGCUAGCGUACUGGCAUUUGUAGAAGGCGGUGCUG [JL-ex3-3.23 Brourd mod] (puzzle: Exclusion 3) |  |  |  |  |  |  |  | apparent KD of MS2 coat protein (MS2 coat protein; [4]): 16.4 nM
UUUUAACAUGAGGAUCACCCAUGUGAGGAUAUGAUUUUUUUUUUUUUUUUUUUUUUUUUCAGAAGGCACAUUUU [My solution] (puzzle: Exclusion 1) |  |  |  |  |  |  |  | apparent KD of MS2 coat protein (MS2 coat protein; [5]): 18 nM; apparent KD of MS2 coat protein (MS2 coat protein; [4]): 64.3 nM; apparent KD of MS2 coat protein (MS2 coat protein; [6]): 42.4 nM
UACGUGUCAGGAUAUUUGAAGCGAAUCACGAGCAUUCGCGUGGAGAAGGGACAUGAGGAUCACCCAUGUAGGCG [Eternabot (L1) Solution 32] (Eterna round: R97, puzzle: Exclusion 4) |  |  |  |  |  | 370 | 242 | 
AGCGCCAUCGUGAGAUGGCGUAUUACAUGAGGAUCACCCAUGUAGGAUAUCGAUUGCUUUGCAGUCGAGAAGGGCAUGUCCAAG [JL ENG3 3.80 Mod I] (Eterna round: R96, puzzle: Exclusion NG 3) |  |  |  |  |  | 45.4 | 35 | apparent KD of MS2 coat protein (MS2 coat protein; [7]): 37.8 nM
AGCCACAGAGGAUAUACAUACAUCCAGUAGCGGAUAUCGCUACAUGAGGAUCACCCAUGUAGAAGGCUGUGGCA [Omei Ex2 BD B22] (Eterna round: R97, puzzle: Exclusion 2) |  |  |  |  |  | 148 | 611 | 

Sequence | apparent KD of K4 kissing-loop reporter ([1]; input ligand: FMN 200 uM) [nM] | apparent KD of K4 kissing-loop reporter ([1]; input ligand: arginine 13.2 mM) [nM] | apparent KD of K4 kissing-loop reporter ([1]; input ligand: none) [nM] | apparent KD of K4 kissing-loop reporter [1, 2] [nM] | apparent KD of K4 kissing-loop reporter [1, 3] [nM] | apparent KD of MS2 coat protein (MS2 coat protein; input ligand: FMN 200 uM) [nM] | apparent KD of MS2 coat protein (MS2 coat protein; input ligand: none) [nM] | further results
AUAACAAGCUUUUUGCUCGUCGUAUAUGACGCUCGAGUCACAUGAGGAUCACCCAUGUCUUCCUGUUUGAUUGUUGA [JR_SV3TOV2_Sub056] (puzzle: Sensor v3, turn-off variant 2) |  |  |  |  |  |  |  | apparent KD of MS2 coat protein (MS2 coat protein; [5]): 148 nM; apparent KD of MS2 coat protein (MS2 coat protein; [4]): 122 nM; apparent KD of MS2 coat protein (MS2 coat protein; [6]): 177 nM
AAACACGGAGGAUAUGGUCACUAGGACAUGAGGAUCACCCAUGUGGGAGUGCUAGUGCUACCAGAAGGUUGAAGUC [Eternabot (L1) Solution 54] (Eterna round: R97, puzzle: Exclusion 5) |  |  |  |  |  | 66.6 | 76.1 | 
CCGAAGUGGCGGUCCUAUGACAUGAGGAUCACCCAUGUACUUCGCCACAAGCUUUUUGCUCAUCUUAUAGUUCUCGG [Ator] (puzzle: Sensor v3, turn-off variant 1) |  |  |  |  |  |  |  | apparent KD of MS2 coat protein (MS2 coat protein; [5]): 16.4 nM; apparent KD of MS2 coat protein (MS2 coat protein; [4]): 25.1 nM; apparent KD of MS2 coat protein (MS2 coat protein; [6]): 16.4 nM
GCACUGCGAGGAUAUACAUGAGGAUCACCCAUGUGUCGGCAGCCAUGGUAGUACAAAUGUAGAAGGCGCGUAAA [EX3 #50] (Eterna round: R97, puzzle: Exclusion 3) |  |  |  |  |  | 85.6 | 587 | 
GGGAGCAGACGGAGAUCCAACAUGAGGAUCACCCAUGUCUCCCAAGCUUUUUGCUUGUCUUAUCCUCCUCUGUUUCC [Design #9] (Eterna round: R97, puzzle: Sensor, turn-off variant 1) |  |  |  |  |  | 17.2 | 17.6 | 
CCCGUCGAUGUAGGAUAUGCCCGGGUCUCCCGGGCAGAAGGACAUGAGGAUCACCCAUGUUCAUGAGGAUCACCCGUGAAUGGG [Double but mutated MS2] (Eterna round: R96, puzzle: Exclusion NG 1) |  |  |  |  |  | 13.1 | 16.3 | apparent KD of MS2 coat protein (MS2 coat protein; [7]): 13 nM
GGUGCGUAUGUGAGGAUAUGCUGGUCCUUGGAUCGGCAGAAGGUACAUGAGGAUCACCCAUGUGGUGUCGUUCC [salish99_Bmod_ex4_102] (puzzle: Brourd's mod of Exclusion 4) |  |  |  |  |  |  |  | apparent KD of MS2 coat protein (MS2 coat protein; [4]): 87 nM
GUGUAGAUAGGAUAUGCAUGAGUCUAGCGAAGCUAGGCUCUACAUGAGGAUCACCCAUGUAGAAGGGUCUACAC [Dot plot directed A v13] (puzzle: Exclusion 2) |  |  |  |  |  |  |  | apparent KD of MS2 coat protein (MS2 coat protein; [4]): 18.6 nM
CUCUAGUCAGGAUAUUAGUUGCCACCUGGACACAGGCGGCAUGAGAAGGGACUUGAGGAUCACCCAAGUAAAAG [Quaesbe] (Eterna round: R97, puzzle: Exclusion 4) |  |  |  |  |  | 384 | 758 | 
AGCAUGCGGAAGGAUAUUUGGAGUAGCGACUCGGGAGAAGGUCUGACAUGAGGAUCACCCAUGUGGAGAGACUG [Eternabot (L1) Solution 59] (Eterna round: R97, puzzle: Exclusion 6) |  |  |  |  |  | 39.2 | 20.9 | 
CCGUGCACGCUGCGGUCCUACAUGAGGAUCACCCAUGUGGUCCGGUGGCGUGGGUCGCCGGACUUGGCUCGUCUUGU [salish99_S_TOV1_R5_017] (Eterna round: R97, puzzle: Sensor, turn-off variant 1) |  |  |  |  |  | 35.1 | 37.6 | 
GCGAAAGCAAGCAAGUGAAACAUGAGGAUCACCCAUGUACUCAUUUGCUCGUCUUGUAAGCUAUGCGAAAGCAUAGC [Mat - Sensor v3 - turn-off var 1 - Eli Mod - D51] (puzzle: Sensor v3, turn-off variant 1) |  |  |  |  |  |  |  | apparent KD of MS2 coat protein (MS2 coat protein; [5]): 10.7 nM; apparent KD of MS2 coat protein (MS2 coat protein; [4]): 9.67 nM; apparent KD of MS2 coat protein (MS2 coat protein; [6]): 9.72 nM
ACUAGAUGAGGAUAUGCAUAUUUUCGUGUUCUUCUAGAUUAACAUGAGGAUCACCCAUGUAGAAGGCGUCAUUU [Exclusion 2 - 16] (puzzle: Exclusion 2) |  |  |  |  |  |  |  | apparent KD of MS2 coat protein (MS2 coat protein; [4]): 15.7 nM
GAAAAGGUAGGAUAUCGAGACCAUAACAUGAGGAUCACCCAUGUGAUACCUACAGUGGUCCGAGAAGGACCAUAUA [Iserdianqu] (puzzle: Exclusion 5) |  |  |  |  |  |  |  | apparent KD of MS2 coat protein (MS2 coat protein; [5]): 62.1 nM; apparent KD of MS2 coat protein (MS2 coat protein; [4]): 20.4 nM; apparent KD of MS2 coat protein (MS2 coat protein; [6]): 19.3 nM
UUUCCACAUGAGGAUCACCCAUGUCAGGAUAUCUCCACAUCUUCGGAUGUGGCGUGUUAGAGAAGGGACAUGUA [EX1 A.22] (Eterna round: R97, puzzle: Exclusion 1) |  |  |  |  |  | 104 | 33.7 | 
GUAAUUAAUGUAGGAUAUGCAAGGCGAACCUAAGCAGAAGGACAUGAGGAUCACCCAUGUAAUGCGGUCUGCGUACAGAUCGCU [salish99_ExNG1_r4_007] (Eterna round: R96, puzzle: Exclusion NG 1) |  |  |  |  |  | 47.8 | 24.2 | apparent KD of MS2 coat protein (MS2 coat protein; [7]): 13.2 nM
GCAGUAUGAGUUAGGAUAUGAUGAUUUUUAUUAAAUCAGAAGGAACUUGAGGAUCACCCAAGUAAAGAAUUGGU [JR_BMEx4_Sub069] (Eterna round: R97, puzzle: Brourd's mod of Exclusion 4) |  |  |  |  |  | 23.3 | 20.4 | 
